Measured values: article PMC4136698

Target: SNAP tag–polyproline peptide fusion (…)
Assay: pull-down

Q: How did the percent of kinase retained by the immobilized SH3 domain ligand turn out when “Src^Y527F (from UniProt P00523 84-533) (enzyme)” was run?
A: 74%

Q: What about the percent of total kinase retained on beads of the same substance?
A: 11%
